{"source": "patent US20100330078A1", "about": "(Pfizer, published 2010)", "key": {"Human FcγRI": {"molecular_target": "T1, Human FcγRI (human, UniProt P12314 16-288, limits assumed)", "T1 construct": "Construct used in Biacore is not described", "T1 sequence (P12314 16-288 limits assumed)": "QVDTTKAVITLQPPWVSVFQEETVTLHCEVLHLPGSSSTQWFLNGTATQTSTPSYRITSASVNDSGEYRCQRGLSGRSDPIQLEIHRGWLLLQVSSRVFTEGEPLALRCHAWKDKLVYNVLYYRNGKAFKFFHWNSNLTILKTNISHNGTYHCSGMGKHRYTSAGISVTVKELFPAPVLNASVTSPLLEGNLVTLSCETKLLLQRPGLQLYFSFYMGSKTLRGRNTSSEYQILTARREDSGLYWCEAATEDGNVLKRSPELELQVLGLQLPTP", "test": "Biacore", "description": "(§1) The ability of 22B5/DLE, which contains the IgG1 DLE triple mutations (as discussed previously in Example 2), to enhance binding to the FcγRs was evaluated in a Biacore binding experiment. The FcγR binding affinities of 22B5/DLE were compared with the binding affinity of wild type (wt) IgG1. […] The binding affinity comparison of 22B5/DLE and wild type IgG1 was also evaluated against the murine Fcγ receptors. The greatest enhancement in binding was to the mFcγRIV, followed by mFcγRI, and mFcγRIII (see FIG. 5)."}, "Murine FcγRIV": {"molecular_target": "T2, Murine FcγRIV (murine, UniProt A0A0B4J1G0 21-203)", "T2 construct": "Construct not described; also called mFcγRIV", "T2 sequence": "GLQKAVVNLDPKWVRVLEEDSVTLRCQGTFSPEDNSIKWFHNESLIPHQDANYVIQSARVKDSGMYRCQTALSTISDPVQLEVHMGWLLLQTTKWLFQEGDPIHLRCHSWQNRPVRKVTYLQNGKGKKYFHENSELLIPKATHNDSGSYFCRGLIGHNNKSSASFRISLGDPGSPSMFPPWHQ", "test": "Biacore", "description": "as §1"}, "Murine FcγRI": {"molecular_target": "T3, Murine FcγRI (murine, UniProt P26151 25-297, limits assumed)", "T3 construct": "Construct not described; also called mFcγRI", "T3 sequence (looked up)": "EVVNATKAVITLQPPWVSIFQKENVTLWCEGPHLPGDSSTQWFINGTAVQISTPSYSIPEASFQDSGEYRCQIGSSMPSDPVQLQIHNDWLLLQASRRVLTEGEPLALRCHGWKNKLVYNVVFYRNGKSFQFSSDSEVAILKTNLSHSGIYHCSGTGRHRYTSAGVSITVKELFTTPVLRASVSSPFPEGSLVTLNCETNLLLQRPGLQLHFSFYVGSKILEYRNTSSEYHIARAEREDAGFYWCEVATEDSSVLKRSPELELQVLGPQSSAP", "test": "Biacore", "description": "as §1"}, "Human FcγRIIa/131H": {"molecular_target": "T4, Human FcγRIIa/131H (human, UniProt P12318 36-218, limits assumed)", "T4 construct": "Polymorphic variant 131H; construct not described", "T4 sequence (looked up)": "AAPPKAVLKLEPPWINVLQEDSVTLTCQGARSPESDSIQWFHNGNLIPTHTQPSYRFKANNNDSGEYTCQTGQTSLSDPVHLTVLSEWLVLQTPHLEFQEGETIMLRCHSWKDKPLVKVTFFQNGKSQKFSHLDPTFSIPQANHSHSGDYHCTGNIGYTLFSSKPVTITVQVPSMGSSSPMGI", "test": "Biacore", "description": "as §1"}, "Murine FcγRIII": {"molecular_target": "T5, Murine FcγRIII (murine, UniProt P08508 31-215, limits assumed)", "T5 construct": "Construct not described; also called mFcγRIII", "T5 sequence (looked up)": "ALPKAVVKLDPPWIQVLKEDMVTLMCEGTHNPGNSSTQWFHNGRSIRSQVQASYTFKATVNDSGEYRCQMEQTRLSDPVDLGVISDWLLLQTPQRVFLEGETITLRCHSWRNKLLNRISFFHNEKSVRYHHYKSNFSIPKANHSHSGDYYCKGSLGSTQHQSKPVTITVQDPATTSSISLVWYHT", "test": "Biacore", "description": "as §1"}, "Human FcγRIIIa/158V": {"molecular_target": "T6, Human FcγRIIIa/158V (human, UniProt P08637 17-208, limits assumed)", "T6 construct": "also called Human FcγRIII/158V", "T6 sequence (P08637 17-208 F176V limits assumed)": "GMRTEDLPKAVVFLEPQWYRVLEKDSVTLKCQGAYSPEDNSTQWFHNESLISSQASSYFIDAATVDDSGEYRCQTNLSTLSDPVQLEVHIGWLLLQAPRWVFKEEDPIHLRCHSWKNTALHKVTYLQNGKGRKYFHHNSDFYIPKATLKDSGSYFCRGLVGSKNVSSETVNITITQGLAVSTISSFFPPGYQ", "test": "Biacore", "description": "as §1"}, "Human FcγRIIa/131R": {"molecular_target": "T7, Human FcγRIIa/131R (human, UniProt P12318 36-218, limits assumed)", "T7 construct": "Polymorphic variant 131R; construct not described", "T7 sequence (looked up)": "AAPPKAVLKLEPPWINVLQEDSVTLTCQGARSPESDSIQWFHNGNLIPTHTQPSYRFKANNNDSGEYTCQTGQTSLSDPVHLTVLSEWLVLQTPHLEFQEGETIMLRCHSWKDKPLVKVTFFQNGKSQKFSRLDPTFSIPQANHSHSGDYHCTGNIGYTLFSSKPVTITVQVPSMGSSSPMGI", "test": "Biacore", "description": "as §1"}, "Human FcγRIIIa/158F": {"molecular_target": "T8, Human FcγRIIIa/158F (human, UniProt P08637 17-208, limits assumed)", "T8 construct": "also called Human FcγRIII/158F", "T8 sequence (P08637 17-208 limits assumed)": "as the sequence (P08637 17-208 F176V limits assumed) above, with V160F counted along it", "test": "Biacore", "description": "as §1"}, "[1]": {"molecular_target": "T9, human integrin α5β1 on cells (endogenous, HUVEC; tumor or endothelial-expressed) (human, UniProt P08648 42-1049; P05556 21-798)", "T9 construct": "whole, on cells; also called cell surface integrin α5; endogenous α5β1", "T9 sequence (P08648 42-1049, chain 1 of 2)": "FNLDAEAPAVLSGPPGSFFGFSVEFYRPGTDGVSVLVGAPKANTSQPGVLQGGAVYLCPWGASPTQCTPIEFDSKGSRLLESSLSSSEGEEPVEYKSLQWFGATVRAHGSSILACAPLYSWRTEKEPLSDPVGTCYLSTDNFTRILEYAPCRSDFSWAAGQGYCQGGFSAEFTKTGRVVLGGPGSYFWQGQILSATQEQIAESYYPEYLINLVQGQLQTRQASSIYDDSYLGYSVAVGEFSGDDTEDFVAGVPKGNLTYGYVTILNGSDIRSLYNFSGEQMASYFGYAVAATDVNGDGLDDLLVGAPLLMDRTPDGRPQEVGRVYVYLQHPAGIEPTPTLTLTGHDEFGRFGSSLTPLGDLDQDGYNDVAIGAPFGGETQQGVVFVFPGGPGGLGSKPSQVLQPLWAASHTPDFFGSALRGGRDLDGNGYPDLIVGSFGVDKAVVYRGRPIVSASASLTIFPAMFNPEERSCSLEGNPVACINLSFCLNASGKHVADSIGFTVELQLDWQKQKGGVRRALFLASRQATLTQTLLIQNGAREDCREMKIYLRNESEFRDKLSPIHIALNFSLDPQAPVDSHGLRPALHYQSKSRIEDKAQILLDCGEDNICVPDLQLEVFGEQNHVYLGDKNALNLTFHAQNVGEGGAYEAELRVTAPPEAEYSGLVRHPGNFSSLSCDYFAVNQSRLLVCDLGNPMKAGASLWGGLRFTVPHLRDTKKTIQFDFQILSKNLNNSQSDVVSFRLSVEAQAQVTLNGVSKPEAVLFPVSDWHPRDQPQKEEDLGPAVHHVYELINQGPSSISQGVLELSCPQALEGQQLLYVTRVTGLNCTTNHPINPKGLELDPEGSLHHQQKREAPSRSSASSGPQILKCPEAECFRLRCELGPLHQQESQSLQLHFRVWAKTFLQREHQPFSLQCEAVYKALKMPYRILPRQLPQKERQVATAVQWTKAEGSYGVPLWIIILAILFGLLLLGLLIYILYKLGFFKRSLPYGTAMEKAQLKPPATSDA", "T9 sequence (P05556 21-798, chain 2 of 2)": "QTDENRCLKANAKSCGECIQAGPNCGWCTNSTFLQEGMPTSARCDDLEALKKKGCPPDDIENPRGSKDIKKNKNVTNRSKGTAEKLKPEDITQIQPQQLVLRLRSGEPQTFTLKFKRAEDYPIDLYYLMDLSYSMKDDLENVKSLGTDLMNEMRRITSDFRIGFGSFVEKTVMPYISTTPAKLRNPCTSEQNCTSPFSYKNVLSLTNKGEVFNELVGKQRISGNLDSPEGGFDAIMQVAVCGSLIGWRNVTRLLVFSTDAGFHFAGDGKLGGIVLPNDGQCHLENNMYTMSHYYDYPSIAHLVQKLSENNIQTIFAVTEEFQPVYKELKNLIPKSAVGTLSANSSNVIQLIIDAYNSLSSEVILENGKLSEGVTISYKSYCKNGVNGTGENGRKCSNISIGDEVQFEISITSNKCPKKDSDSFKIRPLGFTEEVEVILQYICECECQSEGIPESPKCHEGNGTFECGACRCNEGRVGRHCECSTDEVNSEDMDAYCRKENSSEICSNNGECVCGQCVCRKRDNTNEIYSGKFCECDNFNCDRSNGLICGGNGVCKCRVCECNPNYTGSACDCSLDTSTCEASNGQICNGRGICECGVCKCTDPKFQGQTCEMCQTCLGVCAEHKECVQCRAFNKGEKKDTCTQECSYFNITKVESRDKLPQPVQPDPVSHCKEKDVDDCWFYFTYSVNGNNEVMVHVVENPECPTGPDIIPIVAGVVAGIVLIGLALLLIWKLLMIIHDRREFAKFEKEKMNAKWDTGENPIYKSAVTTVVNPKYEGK", "test": "FACS on HUVEC (endogenous human α5β1), GeoMean against mAb concentration, fitted; experiment 031307", "description": "(§2) The 22B5/DLE, 24C7/DLE, 1 D9/DLE, and 2D2/DLE antibodies were tested for their binding affinity to cell surface integrin α5 using a FACS assay, employing endogenous human integrin α5β1 expressing cells (HUVEC). Briefly, the cells were detached using trypsin-EDTA and washed with cold PBS. After being aliquoted into 96-well plates, the cells were blocked by serum and incubated with different concentrations of specific mAb for 1 hour at 4° C. Subsequently, the cells were washed and incubated with an anti-human κ secondary antibody conjugated with the R-PE fluorophore and analyzed using a FACSCalibur flow cytometer. 10,000 events were collected for each sample without applying any gating. For KD determination, the Geometric Mean of each sample histogram was calculated and plotted as a function of the mAb concentration. KD was calculated after fitting to a two-state equilibrium model."}, "[2]": {"molecular_target": "T9, human integrin α5β1 on cells …", "test": "cell-based or functional assay"}, "[3]": {"molecular_target": "T9, human integrin α5β1 on cells …", "test": "cell-based or functional assay", "remark": "listed apart in the source"}, "[4]": {"molecular_target": "T9, human integrin α5β1 on cells …", "test": "FACS on HUVEC, geometric mean against mAb concentration, two-state equilibrium model", "description": "as §2, with “22B5/DLE antibody was” for “22B5/DLE, 24C7/DLE, 1 D9/DLE, and 2D2/DLE antibodies were”, “its” for “their”"}}}
{"binder": "22B5/DLE (antibody, human IgG1, kappa, Human IgG1 with Fc mutations S247D, A338L, I340E; the VH already holds the germline back-mutations I30S and N33S; also called 22B5 IgG1 DLE; 22B5 G1 DLE) heavy: QLQLQESGPGLVKPSETLSLTCTVSGGSISSSSYWGWIRQPPGKGLEWIGSIYYSGRNYNNPSLKSRVTISVDTSKNQFSLKLSSVTAADTAVYYCARHYYGSGSSYYYYDLDVWGQGTTVTVSSASTKGPSVFPLAPSSKSTSGGTAALGCLVKDYFPEPVTVSWNSGALTSGVHTFPAVLQSSGLYSLSSVVTVPSSSLGTQTYICNVNHKPSNTKVDKKVEPKSCDKTHTCPPCPAPELLGGPDVFLFPPKPKDTLMISRTPEVTCVVVDVSHEDPEVKFNWYVDGVEVHNAKTKPREEQYNSTYRVVSVLTVLHQDWLNGKEYKCKVSNKALPLPEEKTISKAKGQPREPQVYTLPPSREEMTKNQVSLTCLVKGFYPSDIAVEWESNGQPENNYKTTPPVLDSDGSFFLYSKLTVDKSRWQQGNVFSCSVMHEALHNHYTQKSLSLSPGK light: not shown", "values": [{"measurement": "Kd", "setting": "Human FcγRI", "result": 5.8, "unit": "nM"}, {"measurement": "Kd", "setting": "Murine FcγRIV", "result": 9.1, "unit": "nM"}, {"measurement": "Kd", "setting": "Murine FcγRI", "result": 96, "unit": "nM"}, {"measurement": "Kd", "setting": "Human FcγRIIa/131H", "result": 1000, "unit": "nM"}, {"measurement": "Kd", "setting": "Murine FcγRIII", "result": 1700, "unit": "nM"}, {"measurement": "Kd", "setting": "Human FcγRIIIa/158V", "result": 9.4, "unit": "nM"}, {"measurement": "Kd", "setting": "Human FcγRIIa/131R", "result": 650, "unit": "nM"}, {"measurement": "Kd", "setting": "Human FcγRIIIa/158F", "result": 27, "unit": "nM"}, {"measurement": "Kd", "setting": "[1]", "result": 1.99, "unit": "nM"}, {"measurement": "ADCC EC50 (up to 80% target cell lysis), human PBMCs", "setting": "[2]", "result": 0.04, "unit": "nM"}, {"measurement": "IC50, inhibition of HUVEC adhesion to fibronectin (fluorescence 485/535 nM)", "setting": "[3]", "result": 1.01, "unit": "nM"}, {"measurement": "Kd", "setting": "[4]", "result": 2.15, "unit": "nM"}]}
